Values quoted from earlier work in publication PMC10093836, “Stabilization of the Dimeric State of SARS-CoV-2 Main Protease by GC376 and Nirmatrelvir” (International Journal of Molecular Sciences, 2023).

Target: Mpro (SARS-CoV-2) (UniProt P0DTD1)

Mpro (from UniProt P0DTD1)
Kd: 7 µM
